This assay has as its target FGFR4 ectodomain (Homo sapiens, UniProt P22455). Kind of assay: AVEXIS normalised luminescence.

No end group written: not given here.

Data on ten molecules can be found in paper PMC11098746 (2024).

B1: 57 (protein)
chain: NDLCSCNLKVRNNWEHFLQVYQNNGNFKMEILEPECTIQKNLPSEEEKEEFIDFDRKELLLHDFVVIKNSQFTDEKTLELYLSKEENNKAYLMLTFYLGDLKLMIGHNSPYEISLILNVATVNKNMANCKNNAYNIVLLKTTDVFNTADLEILEGPIQFSLGKSSGAFRINVANFFLNNAWKAFTKDKISFLIKPEENCYTILENKINKPQLLIEKKTTFYSEWGEWSNCAMDCDHPDNVQIRERECIHPSGDCFKGDLKESRPCIIPLPPCNELFSHKDNS
modifications: bait human Fc-tagged dimer
B1 registered a binding score of 0.899.

B2: 10 (protein)
chain: FRKYDKNKNKILISHSINNNNNAIKNNNNNNNAIKNNNNNNNAIKNNNNNNNAFSATSFSSEKNKNKAYTNVLKKKNIYIREESNKATNIKEDEEKNKKINNNDKETNYAFLSLKFFPFILTSLLHTGINQIPRNTEIELYEFEKSPMIRHMLVAEERKN
modifications: bait human Fc-tagged dimer
B2: the binding score is 1.56.

B3: 53 (protein)
chain: EKLISKLTKNGDLDLVLLYDIGFVDDSENDHMNSLENIAELGKNLLVRDNKNINLAYITYDDINVDLRIESRNNIGVDNENNYDKDNNAAYKFGSDKNIEEFRNVVLDTKLKSSYKNSAHLKALNYVGLKHFYNSEKESVKMVVMFMNTDGDYNNNNNNNMNNIASSYSAELNLVHYLFDRKNIILNIITRVAFKNYCHYIQQIGSNTNELLKCVLKNSFYNIAALTYEIIKYYDDISINAICHGWSEWSPCSVTCNMGYHFSKRDSLGYIKNSKSGLYKRKGRSCLEQRNLIIQECFNTACDHSLDICDNIYMDISILLDDSSNIALESWNKYIIPFVRKFITHFNINNNQINFALTTYSSHTYNWFNFANVLSKDKDKLLTYLEFFKFNFGSSTKNIKQAIQYMNDHVLNTNYRRNDAKKIMLIINSGEIDNKAVTSVPDIIQRLKDTHNVQVYSICINNQNVKNCRKLSTHSMEKYGSNFAFSLPNAADLRYNVLGIQKSICRNVAGAFRRKLRSGNKDDEDKKDDEYKEEDEYKEEDEYKEEDEYKEEDEYKEEDEYKEEDEYKEEDEDMKKDEDMKKDEDMKKDEYKKGYKDYKKDQSKNDNKAEERKDEGNIATSNEHHASEKTDDEDIITQYNEEDRHDNSNDNIIIDDEPVGQDNSIFKNENFFWGRGKHDSKYTSKLSINSLGDINEYNDDYNNYDYYDDDPTNRNKGFLKKNSIILKSLYNLNEDYVNNNINNDAGSTSSHCRNNNAGHNDIPHFKNMRKYNSETNIPCSSKSNKATNKKLLNRLYNMLFRKKKKYRIKNMDAHSKKKVEKFIENIKFSKENNDDNRKIDEQNIEIQFDTLLDGIFDFLQDYDNSALNAFNNAAPDDDFVYFSNTAPCGVSLMDFPIYDMENMEADVGGKRNDGDNNDDDDNNDDGDNNDDGDNNDDDDNDDKSNNNNNNNNNGDPSSNNNNNNNNNNGDPSSNNNNNNNGDPSSNNNDDGDADEKRNDYISQYNLVLKDKSHNNNYYMTNEHDERKIKKQENIDILSKEEDNIASNYNNELQRTKRSLDFPEIIIKENYENPKDIIHISKKEEANEANNAKGHINLKNKKEHNNVVDNVNPCNKQNINEEDNNINNAIKTARIGIFNKNKINCRNKKASKFDKIKRFNDKINKDNHPLITNVENKNEEIDVLQNNEDKKQKILPIIKNENAKETGQKYENNDVYEEHNKANINNNVEKLYKDKNSHHIKNQYDKGNLAENNEVTPIYSKDYDADDEEYEHWHGHQRDNKATP
modifications: bait human Fc-tagged dimer
B3 returned a binding score of 1.23.

B4: 1 (protein)
chain: EVESSDSTSFLNLISGQSSSNSDDTVSSSDSRGVVASVSGTVDSDVSRTDSTGNVNSKNSELSETRQNSVEQNNNANSADNSIKIKSAFLKENVGVKITGPCDEGFGLVMVPHIIINVDTRNTDIQLGKKSSEINYGIKLRKKGKDEYEEKVGIDLLKNVCETGKNFKFVAYIKGDELIIKWKVIEEGNIPIDIKKFKIKRMSPPITSIQVFSSMSDEKSFVLENKNYVVTNNMPEKCEALATNCFLSGNIDIEKCYQCSLLVENDAKSDVCYNFISRENKEKLNEERFKVKGSTEYEESVESELKGAIDLLISSFYKSDGENGENVLISFEDLNSALEDDIINFCSLLKLVDLSGTFMNHQIGTTADAFNNIVKLLKEHKEEDEFVLRTKLRNPALCMKNVDDWVKSRCGLLTSDDSYVVIKKNSDTNGKNENNEANDEEYDGVIDLSTNENGNVKSIQFNDDIYCNDDYCNRWKNENNCISKIGVEDQGNCASSWAFASKLHFETLRCMKGYDHLGISALYLTNCAKGKISKRCTEGGNPAEFLEIVSNSGFLPTEFDYPYFYALVENSCPSGLNKWINLWEDVKLFDYKYEPNSIGSKGYSVYKSEMFKDNMDEYVKMIKSEIKNKGSVIAYINAQSVLTYDFNGKNILNMCGSKTTDHSINVIGYGHYKNKEGEEKSYWLVRNSWGYYWGDEGNFKVDMYGPSNCNYHFINTVLVFNIDIPMMNNNENNKKGLYNYFPKYTHEFYHNFYDQNFGSDNKISLINSNGANKNDVNNAYTVHGQSGETEVQPSQLRSTANQDSNRGAVTSDPLRTQPETTSTSVKKMDVFQVLKHVKNSKIKVGLIKYDNDDEIGAHHSCTRAYSFDPEKYDECVEFCRKNWEQCKDKPSPGFCLTKLDESKGCFFCYV
modifications: bait human Fc-tagged dimer
B4 displayed a binding score of 1.25.

B5: 55 (protein)
chain: INVQIGNQKYSLCSNKIKKDLLDFYNTLGVSKSDKNLKDNIKKVNLYTKFRKRLYKDRLSIYANVAIKEKGEEVVPVKVVDEKENKENEEKTNILDQEIFTNFMQYNKNNFFCIDELGLDISIPFYKNSGFGANVVYQLPEMVYVNAYTNIYNTIIKGEFNSIDILKRISFFQFFDNFYLNAHYDFKSEKALLNLESKLYEYYNKHGDNIAFNNKIIVERNMHNEYDGSVCLSLKYNNNVFTPIFNFKDKTYEYVYDNLAANRKFSVKVDKERNVHFNYLSFDRVDESNKYFLFFNFIFSNPMQSIITLKREFIF
modifications: bait human Fc-tagged dimer
For B5, the binding score was 0.922.

B6: 79 (protein)
chain: YLEQIKNGISGHYTEDHNIKNNNCISFSDYERSIKNFAISSHAENNYDNIINEYKKIKDINNNINILSSVHRKGRILYDSFLEINKLENDKKEKHEKEDEYEDNDESFLETEEYEDNEDEKYNKDEDDYAESFIETDEYEDNEDDKYNKDEDDYSESFIETDEYDDNEEEQYNKDEDDYTDSFIETDHYENNDDKNEEEEEYNDQDNDYGYNFLETDEYDDSEEYDYDDKEYGESFLEKEEGEEMKDEEMKDEEMKDVEMKDEEMKDEEMKYDEMKNEEMKYDEMKDEVMKDEEMKDEVMKDEEMKDEQMKYEEFKNEESKNEESKNEESKNEESKNEEFKNEESKNEEFKNEEFKNEDMSYDEYMGYKKKEEDESYNTFNGAKKNNAANSFLEKDLQGDSDDELHSTFYSKNVDKENYDDKNIFYGYSDNDDESFLETDSYEEYEDEDKDVEDEYEESFLQNDEKKMVFYDLYKPEENEAYYEKKQKKEEKEEKEEKEQSLNKQNDMEDQEDNEEYKFEEENKEDLLDVQQDEELPSEGKQKVKGKSFDNEHLNEIQNVADVHAFIQKDMKYLDDLIDEEQTIKDAVKKSAYKGNKKLGNNKKSQMILEEEPEENFEEDADEELNKLMEQEKNIVDKEIKNSKANKANKKLQFNNANKQNKMYMKNEYNNKAKNNKNNKFEQQNYDESYMDDDYEQNEEFNDNNQAEDMKETNELDKINDELLTDQGPNEDTLLENNNKIFDNKFVAHKKREKSISPHSYQKVSTKVQNKEDMENKEEKQLINDEAAMTAEELVELENTEDVNTPTMVETEEIDSDENGNKAS
modifications: bait human Fc-tagged dimer
B6 had a binding score of 1.06.

B7: 56 (protein)
chain: FLRNKEHANLINSYNDIVEDINIKKEEKSSSEPPFIPIKNKIDNVHTKNNNQYNLHNNKANKAHLTYGTHTSFLQNCAINDCVDVDNKDSEINNIAKEKDDNNNNNGAKQIEEKNKINKADLHRQNELNLQSGKNEQDINKNEKGKQDISNSNAENKKDVKEGVKELEEKKKEEKISDDHKVEENKKSDDHKVEENKKSDDHKVEENKKSDDHKIEEVKKVEEHEEDEEEDKKEKKSENKNKDENKDENDEDNDEISDEDEVDDDVEEDKNENDDIDDDKKETDKTHLEEEENEIIEKEFSDKKKNGKNKDTKKEKSKDTEKEKSKDIEKEKSKDKEKEKSKDKEKEKGKDKEKEKSKDIEKEKEKDKDIEKEKSKDTAKEKEKDKDIEKEKSKDMEKLKNKQNDEKKKDDNEKKKNDKQDIHDDNDDENDMEEIEENDDEEDEDEDMENKKKKKKGKNGNENGNENGAENGNENGNENGNENENKNEAENENENENENENGNENENEKENEKDKNIKEIENVANANKENYEKINKNSEITITKSNIDIYNNNRNNDIDKVNNHIFTNQQKKHNLHNEQNKFNEALNVATNHKNHYEEKKKYESNMFNVDKRMHKNLASMDTILHNLNDKLSHHKDLKNRELKLKFEAMSRIKEYKIYNELIQKSVEILTLRLTKINDELKKLKDISENALQKYINEKGYGLMKHYNFPEYNKLEEEKIMKRSKITWNEKKSHHLYCPMECNKERCYNRPRGPTQCYKLEQIGRNIETICEPFINEHNGACRPDFHHCAIAEPERNKKYSIYATDDVHFVPSQFVTIKGYNLHECLQFLVVKKNSACGPMTIEKNLMESEEILKEPVLSKVLYNEILFENIKISTPGEYNICLAQFYQDPEKDDILSENSANKYKKKKKNDMKVLGIDTIGTLYVLPLHEKQKTG
modifications: bait human Fc-tagged dimer
B7 gave a binding score of 0.733.

B8: 47 (protein)
chain: NNIAHKEDDCGASELAIKKLQELKKFELDILKDFIKKDTDHTDMYKRYHCISSDFLKNTKQEDKKEDNYAKKEDKKDIENSANYIINNKNEKISFINKIISFVGMWNYNKYGNNIQESKNKINIYNNNNNKAENELLYNKEDYTNHIPTNENPNSYMQLSAFNLAKKSMFLGGKDNAAQNFEVGNYGSFYMIFGARNTDYPWACSCDTLQLEEYKEKKRSYVLCSNQLDMSIQNSDLFCNPKN
modifications: bait human Fc-tagged dimer
The molecule B8 had a binding score of 0.93.

B9: 3 (protein)
chain: MGFHIQRYIAMMGRGINPKTWKKLWVDSKNKQIIHVYNDVAEFMNNQIAQVVRVYQYRY
modifications: also: human Fc-tagged dimer
As to B9, the binding score worked out at 0.753.

B10: 71 (protein)
chain: EERYNFNMDKMLKITCHINLHLKKNPHFTITYKKNLQECIDSCKTNIYCTGIEFSRKRVEYTQIILKNNKKIILGYFKCKQFYFQNIYDYSSYNLDSYLNEHIENQINIKSTLTYTNFIMRNKPDIIYTCSIDRDPKYLLYKNYKLVECVIGKFCPGNNAPYMISCPINSATIIPASEDVNKCLCLKGYSYVGVTSYRCSLCDRGSYKNSVGNNKCDNCPLTFSTTHRGSTNIKDCSCTSGNYLTFD
modifications: bait human Fc-tagged dimer
For the molecule B10, the binding score worked out at 1.
